Drawing on US6218168A, “Process for preparing O-acetylserine, L-cysteine and L-cysteine-related products” (Consortium fur elektrochemische Inudstrie GmbH, priority 1995, dated 2001), this text covers Cysteine yield, Ki and spec. act. for one molecule.

One test has as its system production strain JM15. The test is described as follows: Cysteine production in 1 L fermenter, JM15 with plasmid-encoded cysE alleles. As to conditions: 48 h, JM15 transformed with plasmid. The class given is cell-based, E. coli. The protocol: Influence of different, plasmid-encoded cysE alleles on the production of L-cysteine or products derived from L-cysteine in a 1 L fermenter using the host strain JM15 20 mL of LB medium (1% tryptone, 0.5% yeast extract, 0.5% NaCl) contained in a 100 mL Erlenmeyer flask were inoculated with a single colony of the production strain JM15 (CGSC#5042) which had been transformed with the respective cysE plasmid.
After having been incubated for 7 hours in a bacterial shaker (30° C., 150 rpm), the respective preliminary cultures were transferred to 100 mL of SM1 medium. The SM1 medium contained 5 g/L glucose, 5 mg/L vitamin B1, 3 g/l KH2 PO4, 12 g/L K2 HPO4, 0.3 g/L MgSO4×7 H2 O, 0.1 g/L NaCl, 5 g/L (NH4)2 SO4, 14.7 mg/L CaCl2×2 H2 O, 2 mg/L FeSO4×2 H2 O, 1 g/L Na3 citrate×2 H2 O, 1 ml/L trace element solution and 25 mg/L tetracycline. The trace element solution was composed of 0.15 g/L Na2 MoO4×2 H2 O, 2.5 g/L H3 BO3, 0.7 g/L CoCl2×6 H2 O, 0.25 g/L CuSO4×5 H2 O, 1.6 g/L MnCl2×4 H2 O and 0.3 g/L ZnSO4×7 H2 O. The cultures were shaken in 1 L Erlenmeyer flasks at 30° C. and at 150 rpm for 17 h. After this incubation, the OD600 was between 4 and 5. The subsequent fermentation was carried out in Braun-Melsungen BIOSTAT M research fermenters. A culturing vessel having a total volume of 2 L was used.
The fermentation medium contained 15 g/L glucose, 5 g/L NaCl, 0.3 g/L MgSO4×7 H2 O, 15 mg/L CaCl2×2 H2 O, 75 mg/L FeSO4×7 H2 O, 1 g/L Na3 citrate×2 H2 O, 1.5 g/L KH2 PO4, 1 mL of trace element solution (see above), 5 mg/L vitamin B1, 2.5 g/L yeast extract (Difco), 2.5 g/L tryptone (Difco) and 25 mg/L tetracycline.
The glucose concentration in the fermenter was initially adjusted to a value of 15 g/L by pumping in a 700 g/L (w/v) (sterilized) glucose solution, and the pH was adjusted to 7.0 by pumping in a 25% NH4 OH solution. After an OD600 of 10 had been reached, 300 mg per hour were supplied from a sterile 100 g/L (w/v) stock solution of thiosulfate. 100 mL of preliminary culture were pumped into the fermenter vessel for the inoculation. The starting volume was approximately 1 L. The cultures were initially stirred at 400 rpm and aerated with 1.5 vvm of compressed air which had been sterilized by passing through a sterile filter. The fermentation was carried out at a temperature of 30° C.
The pH was maintained at a value of 7.0 by means of automatic correction with 25% NH4 OH. The oxygen saturation in the fermentation broth had at no time during the fermentation to fall below 20%; the stirring speed was used to ensure this. The glucose content of the nutrient solution, the optical density and the cysteine content were determined at two- to three-hourly intervals. The glucose content was determined enzymically using a glucose analyzer from YSI. The concentration of the glucose was adjusted to between 10 and 20 g/L by means of continuously feeding in this compound.
The content of cysteine in the medium was determined […] from the cell-free super-natant of the sample using the method of Gaitonde, M. K. (1967), Biochem. J. 104, 627-633.
The fermentation was terminated after 44-50 h.

The target in a further test is serine acetyltransferase. In words: Serine acetyltransferase enzyme activity test with and without L-cysteine (inhibitor constant Ki, specific activity). The class given is biochemical, E. coli. As to conditions: for Ki: inhibitor L-cysteine. Summed up: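 Spectrophotometric test with L-serine and acetyl-CoA, reaction started by enzyme, following absorbance decrease at 232 nm from thioester cleavage. Activity measured with and without varying L-cysteine to derive Ki; enzyme from S30 extracts (30,000 g, 4° C, 20 min) of E. coli strains.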

B1: cysEXI: double mutant Thr167->Ala167, Gly245->Ser245 (protein, UniProt P0A9D4 1-273, looked up, variant T167A G245S)
Serine acetyltransferase: MSCEELEIVWNNIKAEARTLADCEPMLASFYHATLLKHENLGSALSYMLANKLSSPIMPAIAIREVVEEAYAADPEMIASAACDIQAVRTRDPAVDKYSTPLLYLKGFHALQAYRIGHWLWNQGRRALAIFLQNQVSVTFQVDIHPAAKIGRGIMLDHATGIVVGEAAVIENDVSILQSVTLGGTGKSGGDRHPKIREGVMIGAGAKILGNIEVGRGAKIGAGSVVLQPVPPHTTAAGVPARIVSKPDSDKPSMDMDQHFNGINHTFEYGDGI
What is called Ki is the equilibrium dissociation constant of an inhibitor or competing ligand from its target. Low values mean higher affinity, high ones lower affinity. B1 returned a Cysteine yield in the test with production strain JM15 of 3.4 g/L. The Ki on serine acetyltransferase (Table 1a, 1 mM L-serine, 0.1 mM acetyl-CoA) worked out at 700 µM; on serine acetyltransferase (Table 2, alleles from chemical mutagenesis), 700 µM. The same molecule had a spec. act. in the test with serine acetyltransferase (Table 1a, serine acetyltransferase activity) of 0.117 µmol/min/mg.
